Laboratory results: publication PMC3858276

Legend:
[1] = target: site-specifically biotinylated Fyn SH2 domain (UniProt P06241); assay: supernatant depletion assay (pull-down titration); biotinylated SH2 domains on streptavidin-coated DynaBeads, washed once and serially diluted in 1x PBS; ADAP at 8 nM (PBS with 0.1% E. coli extract), 10 min at RT; unbound ADAP in the supernatant read by in-gel fluorescence; Kd estimated from the plot
[2] = target: phosphorylated SNAP-ADAP fusion protein (ADAP amino acids 570-690) (human) (UniProt O15117); assay: MST; SH2 proteins (only partly purified) serially diluted in 1x PBS with 1.75% (v/v) E. coli extract; fluorescent ADAP at 12 nM; 5 min at RT; Monolith NT.115
Sequence of phosphorylated SNAP-ADAP fusion protein (ADAP amino acids 570-690) (human) (O15117 570-690): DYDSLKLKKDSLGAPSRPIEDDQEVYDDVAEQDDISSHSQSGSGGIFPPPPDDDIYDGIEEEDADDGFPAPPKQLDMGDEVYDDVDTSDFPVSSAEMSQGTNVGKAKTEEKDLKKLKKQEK

Sequence of site-specifically biotinylated Fyn SH2 domain (P06241 149-246): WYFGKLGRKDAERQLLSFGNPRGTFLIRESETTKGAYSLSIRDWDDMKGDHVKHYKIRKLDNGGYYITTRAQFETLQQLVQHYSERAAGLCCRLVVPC

A Kd [1] of 0.3 µM was found for “phosphorylated SNAP-ADAP fusion protein (ADAP amino acids 570-690) (from UniProt O15117 570-690) (domain or fragment)” in this work.
A Kd [2] of 1 µM was found for “Fyn SH2 domain without biotin (for MST) (from UniProt P06241 149-246) (domain or fragment)” in this work.
A Kd [2] of 1 µM was found for “Src SH2 domain without biotin (for MST) (from UniProt P12931 151-248) (domain or fragment)” in this work.
